Values of other authors as cited in article PMC5331060.
Like-named read-outs stand apart in the source and are kept apart here.

Legend:
[1] = molecular target: beta clamp (Escherichia coli) (UniProt P0A988)
[2] = molecular target: beta clamp (Escherichia coli) (UniProt P0A988); remark: listed apart in the source

Chain of UniProt P0A988 (P0A988 whole entry): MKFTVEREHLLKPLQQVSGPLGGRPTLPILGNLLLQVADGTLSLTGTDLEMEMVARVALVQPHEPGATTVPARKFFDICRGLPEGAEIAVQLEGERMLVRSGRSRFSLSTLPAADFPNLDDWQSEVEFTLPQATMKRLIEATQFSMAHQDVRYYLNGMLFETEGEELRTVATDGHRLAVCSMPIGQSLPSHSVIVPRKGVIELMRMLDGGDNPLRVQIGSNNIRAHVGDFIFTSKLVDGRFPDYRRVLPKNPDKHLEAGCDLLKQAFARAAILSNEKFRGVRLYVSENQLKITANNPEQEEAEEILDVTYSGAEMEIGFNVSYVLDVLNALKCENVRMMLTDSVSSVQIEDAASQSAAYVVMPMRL

Substance	Kd [1] [nM]	Kd [2] [nM]
DinB (Pol IV) (from UniProt Q47155)	460	
Pol III alpha (from UniProt P10443)		108
